{"source": "patent US20220062145A1", "about": "(LIPOTRUE S L, published 2022)", "molecular_target": "elastase enzyme", "assay": "cell-based or functional assay"}
{"binder": "Ac-ALHKVK-NH2", "note": "[Ac-Ala-Leu-His-Lys-Val-Lys-NH2]", "values": [{"measurement": "percentage of elastase inhibition with regard to the positive control (PMSF = 100%), absorbance at 405 nm", "value": "~39 % of positive control"}]}
